According to US20030119169:

T1: tetrapeptide substrate DEVD-AMC
T1 chain: DEVD

T2: in vitro translated GST-CPP32 precursor, P42574
T2 chain: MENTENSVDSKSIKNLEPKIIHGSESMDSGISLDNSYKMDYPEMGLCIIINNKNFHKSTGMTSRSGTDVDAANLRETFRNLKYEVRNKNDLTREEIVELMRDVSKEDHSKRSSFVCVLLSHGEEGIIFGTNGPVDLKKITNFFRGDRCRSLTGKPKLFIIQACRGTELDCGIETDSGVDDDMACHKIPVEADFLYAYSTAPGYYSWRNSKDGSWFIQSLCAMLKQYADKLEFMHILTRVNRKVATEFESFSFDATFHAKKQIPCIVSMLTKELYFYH

T3: YVADamc
T3 chain: YVAD

T4: in vitro translated GST-Mch3α2 precursor
T4 sequence (P55210 whole entry, looked up): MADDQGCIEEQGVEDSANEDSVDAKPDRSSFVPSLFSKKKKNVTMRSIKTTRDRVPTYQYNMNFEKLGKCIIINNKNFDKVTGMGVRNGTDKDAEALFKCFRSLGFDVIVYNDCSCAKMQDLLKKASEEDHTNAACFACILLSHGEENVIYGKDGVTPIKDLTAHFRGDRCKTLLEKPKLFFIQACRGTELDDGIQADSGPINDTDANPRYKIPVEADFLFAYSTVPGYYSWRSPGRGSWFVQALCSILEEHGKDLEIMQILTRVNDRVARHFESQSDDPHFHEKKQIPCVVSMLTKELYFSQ

B1: CPP32, bacterially expressed recombinant active enzyme (protein)
chain: SGISLDNSYKMDYPEMGLCIIINNKNFHKSTGMTSRSGTDVDAANLRETFRNLKYEVRNKNDLTREEIVELMRDVSKEDHSKRSSFVCVLLSHGEEGIIFGTNGPVDLKKITNFFRGDRCRSLTGKPKLFIIQACRGTELDCGIETDSGVDDDMACHKIPVEADFLYAYSTAPGYYSWRNSKDGSWFIQSLCAMLKQYADKLEFMHILTRVNRKVATEFESFSFDATFHAKKQIPCIVSMLTKELYFYH
B2: Mch3α, bacterially expressed recombinant active enzyme (protein)
chain: AKPDRSSFVPSLFSKKKKNVTMRSIKTTRDRVPTYQYNMNFEKLGKCIIINNKNFDKVTGMGVRNGTDKDAEALFKCFRSLGFDVIVYNDCSCAKMQDLLKKASEEDHTNAACFACILLSHGEENVIYGKDGVTPIKDLTAHFRGDRCKTLLEKPKLFFIQACRGTELDDGIQADSGPINDTDANPRYKIPVEADFLFAYSTVPGYYSWRSPGRGSWFVQALCSILEEHGKDLEIMQILTRVNDRVARHFESQSDDPHFHEKKQIPCVVSMLTKELYFSQ

Assays:
[1] = target: in vitro translated GST control [GST: P08515]
in vitro translated GST control [GST: P08515], sequence (P08515 whole entry): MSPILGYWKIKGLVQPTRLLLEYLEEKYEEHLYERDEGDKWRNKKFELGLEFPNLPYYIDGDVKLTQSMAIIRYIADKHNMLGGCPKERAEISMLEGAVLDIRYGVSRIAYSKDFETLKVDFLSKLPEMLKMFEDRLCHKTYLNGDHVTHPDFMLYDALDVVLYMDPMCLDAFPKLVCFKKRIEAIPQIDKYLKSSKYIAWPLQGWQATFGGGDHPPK

[2] = target: T1, tetrapeptide substrate DEVD-AMC
[3] = target: T2, in vitro translated GST-CPP32 …
YVADamc = target: T3, YVADamc
[4] = target: T4, in vitro translated GST-Mch3α2 precursor

Protein | cleavage of 35S-labelled in vitro translated protein, SDS-PAGE and autoradiography [1] | kcat/Km (DEVDamc, mM^-1s^-1) [2] [mM⁻¹ s⁻¹] | cleavage of 35S-labelled in vitro translated precursor, SDS-PAGE and autoradiography [3] | Km (YVADamc, µM) (YVADamc) [µM] | kcat/Km (YVADamc, mM^-1 s^-1) (YVADamc) [mM⁻¹ s⁻¹] | cleavage of 35S-labelled in vitro translated precursor, SDS-PAGE and autoradiography [4] | cleavage of resin-immobilized 35S-labelled precursor, soluble products on gradient SDS gel [4] | Km (DEVDamc, µM) [2] [µM]
B1 | No cleavage was observed when CPP32 was incubated with an in vitro translated GST control | 1600 | CPP32 showed a very weak activity towards its precursor and generated a faint GST-prodomain band of 30 kDa size | > 500 | 0.067 | incubation of CPP32 with the in vitro translated GST-Mch3α generated a GST-prodomain cleavage product of molecular mass 32 kDa | CPP32 was observed to efficiently cleave the GST-Mch3α precursor | 
B2 |  | 11 | No cleavage was observed in the buffer control or the Mch3α reaction |  |  | Mch3α exhibited significantly less activity than CPP32 towards the in vitro translated GST-Mch3α, a similar cleavage product was observed |  | 51
